Like-named read-outs stand apart in the source and are kept apart here.
Key:
[1] = molecular target: T1, cyanuric acid hydrolase from M. thermoacetica (Moorella thermoacetica, UniProt Q2RGM7); format: biochemical, Moorella thermoacetica ATCC 39073; conditions: for activity as % of native activity: at higher concentrations (1.0 and 2.0 mM); for effect of metal on native enzyme activity: 0.2 mM
T1 construct: ORF Moth—2120 from M. thermoacetica ATCC 39073 was PCR amplified; His-tag (from pET28b+, cloned NdeI/HindIII) (N); made in house; host or cells: E. coli BRL21(DE3) pLysS, vector pET28b+::Moth_2120
T1 sequence (Q2RGM7 1-367): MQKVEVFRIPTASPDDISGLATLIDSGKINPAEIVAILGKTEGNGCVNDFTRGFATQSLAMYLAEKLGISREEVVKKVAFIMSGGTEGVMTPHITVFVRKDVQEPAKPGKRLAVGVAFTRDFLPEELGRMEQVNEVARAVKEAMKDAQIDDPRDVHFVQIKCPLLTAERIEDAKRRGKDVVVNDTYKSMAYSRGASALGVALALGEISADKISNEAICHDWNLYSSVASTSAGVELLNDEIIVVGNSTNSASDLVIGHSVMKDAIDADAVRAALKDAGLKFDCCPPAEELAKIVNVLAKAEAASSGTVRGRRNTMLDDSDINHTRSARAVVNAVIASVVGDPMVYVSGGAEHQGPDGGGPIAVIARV

[2] = molecular target: T1, cyanuric acid hydrolase from M. thermoacetica; experiment: Metal chelator effects; format: biochemical, Moorella thermoacetica ATCC 39073; conditions: for effect of chelator on activity: 5 mM chelator, 24 h incubation, room temperature
Experimental: Metal chelator effects. Purified protein was incubated at room temperature with 5 mM 1,10-phenanthroline, 8-hydroxyquinoline-5-sulfonic acid, or ethylenediaminetetraacetic acid (EDTA) for 24 hours. PD-10 desalting columns (GE Healthcare) were used, as per the manufacturer's instructions, to remove the chelator from the enzyme. Enzymatic activity was measured with cyanuric acid as substrate, as described above.

[3] = molecular target: T2, Moorella cyanuric acid hydrolase (Moorella thermoacetica, UniProt Q2RGM7); experiment: Substrate specificity analysis; format: biochemical, Moorella thermoacetica ATCC 39073
T2 construct: ORF Moth—2120 from M. thermoacetica ATCC 39073 was PCR amplified; His-tag (from pET28b+, cloned NdeI/HindIII) (N); made in house; host or cells: E. coli BRL21(DE3) pLysS, vector pET28b+::Moth_2120
T2 sequence (Q2RGM7 1-367): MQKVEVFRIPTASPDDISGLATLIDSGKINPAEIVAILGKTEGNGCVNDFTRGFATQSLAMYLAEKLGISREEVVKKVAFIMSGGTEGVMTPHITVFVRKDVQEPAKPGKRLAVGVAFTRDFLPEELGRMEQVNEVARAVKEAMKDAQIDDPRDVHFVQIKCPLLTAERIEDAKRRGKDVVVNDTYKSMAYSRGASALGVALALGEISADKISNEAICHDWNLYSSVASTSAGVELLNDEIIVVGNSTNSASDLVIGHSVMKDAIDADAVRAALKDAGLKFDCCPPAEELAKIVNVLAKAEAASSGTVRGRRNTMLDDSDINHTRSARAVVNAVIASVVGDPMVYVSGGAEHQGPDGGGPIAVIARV
Experimental: (§1) Enzyme assay and kinetic constant determinations. Enzyme activity was monitored on a Beckman DU 640 spectrophotometer (Beckman Coulter, Fullerton, Calif.). Cyanuric acid and barbituric acid concentrations were measured at 214 nm (extinction coefficient=9200 cm^−1M^−1) and 256 nm, respectively. Reactions were carried out in 0.5 ml 25 mM Tris-HCl buffer, pH 8.0 with 100 μM cyanuric acid or barbituric acid at 30° C. Reactions were initiated by the addition of the enzyme. Kinetic parameters were determined by obtaining rates at cyanuric acid concentrations ranging from 10 to 110 μM. The data was plotted using Lineweaver-Burke plots.
Substrate specificity analysis. Seventeen compounds structurally analogous to cyanuric acid were tested as substrates: 5-nitrobarbituric acid, 5-methylbarbituric acid, 2-methylamino-4,6dihydroxy-s-triazine, 1,3,5-trimethoxy-s-triazine, 2-(3-methoxy propylamino)-4,6-dihydroxy-s-triazine, triphenoxy-s-triazine, 2-secbutyl-4,6-dihydroxy-s-triazine, N-phenyl ammelide, 2-ethylamino-4,6-dihydroxy-s-triazine, triisopropoxy-s-triazine, trimethyl isocyanurate, 1,3-dimethyl isocyanurate, hexazinone, 4,6-dihydroxy-2-mecapto pyrimidine, 4,6-dihydroxy-5-nitro-pyrimidine, barbituric acid and methyl isocyanurate. The compounds (100 μM) were incubated with 50 μg of purified enzyme in 25 mM Tris-HCl buffer (pH 8.0) for 30 min. Changes in the UV spectra were recorded. In cases where changes in the spectra were detected, an appropriate wavelength with absorbance differences between the substrate and product was chosen for further kinetic study. For N-methylisocyanurate, absorbance was measured at 214 nm (extinction coefficient=9500 cm^−1M^−1).

[4] = Effect of pH and temperature on enzymatic activity; format: biochemical
Experimental: Effect of pH and temperature on enzymatic activity. The optimum pH of the enzyme was determined at 30° C. with the following buffers: 25 mM […]; 25 mM Tris-HCl, pH 7-9; NaHCO3/Na2CO3, pH 9.5-10.5. The temperature optimum was determined by assaying the enzyme activity in 25 mM Tris-HCl, pH 8.0 at temperatures ranging from 25° C. to 70° C.

[5] = Temperature stability of the enzyme (30 min incubation prior to assay); format: biochemical
Experimental: FIG. 4. Stability of enzyme activity vs. temperature at pH 8.0 for purified cyanuric acid hydrolases from M. thermoacetica ATCC 39073 (●) compared with TrzD (▪) and AtzD (▴). Enzymes were maintained at the temperature indicated for 30 minutes prior to assay under standard conditions.
(§2) Temperature stability of the enzyme. The thermal stability of the enzyme was determined by incubating the enzyme at various temperatures for […] prior to activity determinations. Studies of the stability during storage were performed at 4° C. or −80° C. with or without additives. The additives were 0.2 mM of dithiothreitol (DTT), 10% ethylene glycol, 25% glycerol and 25% polyethylene glycol (PEG) 4000. The activity was checked every two weeks, as described above.

[6] = cyanuric acid, published values, cited from earlier work
[7] = Enzyme assay and kinetic constant determinations (cyanuric acid, 214 nm); format: biochemical
Experimental: as §1

[8] = molecular target: T3, cyanuric acid hydrolase from M. thermoacetica ATCC 39073 (Moorella thermoacetica, UniProt Q2RGM7); experiment: Storage stability at 4° C. or −80° C. with or without additives; format: biochemical, Moorella thermoacetica ATCC 39073; conditions: for Activity, 0 week: pH 8.0, 0 week; for Activity, 2 week: pH 8.0, 2 week; for Activity, 4 week: pH 8.0, 4 week; for Activity, 6 week: pH 8.0, 6 week; for Activity, 8 week: pH 8.0, 8 week
T3 construct: ORF Moth—2120 from M. thermoacetica ATCC 39073 was PCR amplified; His-tag (from pET28b+, cloned NdeI/HindIII) (N); made in house; host or cells: E. coli BRL21(DE3) pLysS, vector pET28b+::Moth_2120
T3 sequence (Q2RGM7 1-367): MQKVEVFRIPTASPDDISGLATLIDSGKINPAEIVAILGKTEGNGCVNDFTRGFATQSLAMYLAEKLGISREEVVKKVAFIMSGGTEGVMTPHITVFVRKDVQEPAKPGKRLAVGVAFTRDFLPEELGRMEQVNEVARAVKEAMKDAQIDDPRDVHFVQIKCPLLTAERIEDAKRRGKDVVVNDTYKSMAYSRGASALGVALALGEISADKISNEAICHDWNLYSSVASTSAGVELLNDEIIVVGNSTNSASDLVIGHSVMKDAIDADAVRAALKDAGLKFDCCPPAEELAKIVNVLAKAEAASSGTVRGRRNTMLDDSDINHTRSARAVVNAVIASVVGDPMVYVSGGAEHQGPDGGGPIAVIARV
Experimental: as §2

## [Cl][Fe]([Cl])[Cl] [FeCl3]
[1]; metal salt 0.2 mM
  Relative activity: 105 ± 4

## O=S(=O)(O)c1ccc(O)c2ncccc12 [8-hydroxyquinoline-5-sulfonic acid]
[2]
  effect of chelator on activity: failed to alter activity

## [Cl-].[Cl-].[Mg+2] [MgCl2]
[1]
  activity as % of native activity: 119%
[1]; metal salt 2.0 mM
  Relative activity: 119 ± 2

## [Ca+2].[Cl-].[Cl-] [CaCl2]
[1]
  activity as % of native activity: 121%
[1]; metal salt 1.0 mM
  Relative activity: 121 ± 7

## [Cl][Cu][Cl] [CuCl2]
[1]
  effect of metal on native enzyme activity: slight decreases in activity
[1]; metal salt 0.2 mM
  Relative activity: 83 ± 3

## [Cl][Ni][Cl] [NiCl2]
[1]
  effect of metal on native enzyme activity: slight decreases in activity
[1]; metal salt 0.2 mM
  Relative activity: 79 ± 3

## O=S(=O)([O-])[O-].[Zn+2] [ZnSO4]
[1]
  effect of metal on native enzyme activity: greatest inhibitory affect
[1]; metal salt 0.2 mM
  Relative activity: 51 ± 4

## Cn1c(=O)[nH]c(=O)[nH]c1=O [methyl isocyanurate]
[3]
  rate relative to the preferred substrate cyanuric acid: less than 1%
[3]; 100 μM compound, 25 mM Tris-HCl pH 8.0
  rate of hydrolysis as substrate: 0.13 µmol/min/mg

## O=C1CC(=O)NC(=O)N1 [barbituric acid]
[3]; 100 μM, even with 50 μg of protein in a single assay
  detectable activity with compound as substrate: did not show detectable activity

## O=S(=O)([O-])[O-].[Mn+2] [MnSO4]
[1]; metal salt 0.2 mM
  Relative activity: 96 ± 3

## [Cl-].[Cl-].[Co+2] [CoCl2]
[1]
  Relative activity: 92 ± 5

## c1cnc2c(c1)ccc1cccnc12 [o-phenanthroline, 1,10-phenanthroline]
[2]
  effect of chelator on activity: failed to alter activity

## O=C(O)CN(CCN(CC(=O)O)CC(=O)O)CC(=O)O [EDTA, ethylenediaminetetraacetic acid]
[2]
  effect of chelator on activity: failed to alter activity

B1: cyanuric acid hydrolase from M. thermoacetica ATCC 39073: recombinant His-tagged cyanuric acid hydrolase encoded by ORF Moth—2120 of Moorella thermoacetica ATCC 39073, expressed in E. coli (protein, listed as Moorella thermoacetica)
chain: MQKVEVFRIPTASPDDISGLATLIDSGKINPAEIVAILGKTEGNGCVNDFTRGFATQSLAMYLAEKLGISREEVVKKVAFIMSGGTEGVMTPHITVFVRKDVQEPAKPGKRLAVGVAFTRDFLPEELGRMEQVNEVARAVKEAMKDAQIDDPRDVHFVQIKCPLLTAERIEDAKRRGKDVVVNDTYKSMAYSRGASALGVALALGEISADKISNEAICHDWNLYSSVASTSAGVELLNDEIIVVGNSTNSASDLVIGHSVMKDAIDADAVRAALKDAGLKFDCCPPAEELAKIVNVLAKAEAASSGTVRGRRNTMLDDSDINHTRSARAVVNAVIASVVGDPMVYVSGGAEHQGPDGGGPIAVIARV
modifications: His tag
notes: recombinant His-tagged cyanuric acid hydrolase encoded by ORF Moth—2120 of Moorella thermoacetica ATCC 39073, expressed in E. coli
[4]; 25 mM Tris-HCl pH 8.0, range 25-70° C.
  Temp, optimum: 70 °C
[4]; 30° C., pH 5.5 to 10.5
  pH optimum: 8.0
[4]; 70° C., pH 8.0
  maximum activity at 70° C.: 24 μmol per min per mg protein
[5]; 30 min, pH 8.0
  initial activity remaining after 30 min at 50° C.: stable
[5]; 30 min, pH 8.0, listed as Moorella enzyme
  initial activity remaining after 30 min at 50° C.: 95%
[5]; 70° C., 30 min, pH 8.0
  initial activity remaining after 30 min at 70° C.: 30%
[5]; pH 8.0, 30 min incubation
  Thermostability: temperature where activity above 50% after a 30 min incubation: 20-65 °C
[3]
  Known substrates: Cyanuric acid, N-
[2]
  Influence of chelators on activity: No affect EDTA, o-
[6]
  kcat (literature): 10.6 s⁻¹
[6]; read-out: Km (literature)
  Km: 110 µM
[7]; 100 μM cyanuric acid, 25 mM Tris-HCl pH 8.0, 30° C.
  specific activity with cyanuric acid: 15.7 µmol/min/mg
[7]; cyanuric acid 10 to 110 μM, Lineweaver-Burke, read-out: Km with cyanuric acid as substrate
  Km: 110 µM
[7]; cyanuric acid as substrate
  kcat: 10.6 s⁻¹
[8]; both storage temperatures (4° C. and −80° C.)
  loss of activity after 8 weeks: no loss of activity
[8]; stored at 4° C., 8 weeks
  specific activity after 8 weeks as % of initial specific activity: 142%
[8]; stored at 4° C.
  Activity, 0 week: 11.9 ± 0.23 μmol per min per mg protein
  Activity, 2 week: 12.5 ± 0.2 μmol per min per mg protein
  Activity, 4 week: 15.9 ± 0.7 μmol per min per mg protein
  Activity, 6 week: 16.6 ± 0.9 μmol per min per mg protein
  Activity, 8 week: 16.9 ± 1^ μmol per min per mg protein
[8]; stored at −80° C.
  Activity, 0 week: 11.9 ± 0.2 μmol per min per mg protein
  Activity, 2 week: 14.9 ± 0.1 μmol per min per mg protein
  Activity, 4 week: 14.3 ± 0.3 μmol per min per mg protein
  Activity, 6 week: 12.3 ± 0.4 μmol per min per mg protein
  Activity, 8 week: 11.7 ± 1.1 μmol per min per mg protein
[1]
  Metal affects on activity: Cu(II), Zn(I), Ni(II)

— patent US8367389B2, “Methods, compositions and devices utilizing structurally stable cyanuric acid hydrolase” (Regents of the University of Minnesota, priority 2009, dated 2013)
